B1: DGL208 (bispecific antibody)
heavy 1: QVQLVESGGGLVQAGGSLRLSCAASGRTFSKHAMGWFRQAPGKEREFVAAIDWSGGSTYYADSVKGRFTISRDNAKNTVYLQMDSLKPEDTAVYYCAADSYTDYAQLWLPELESEYDYWGQGTLVTVSSPLAPDKTHTCPPCPAPEAAGAPSVFLFPPKPKDTLMISRTPEVTCVVVDVSHEDPEVKFNWYVDGVEVHNAKTKPREEQYNSTYRVVSVLTVLHQDWLNGKEYKCKVSNKALPAPIEKTISKAKGQPREPQVCTLPPSRDELTKNQVSLSCAVKGFYPSDIAVEWESNGQPENNYKTTPPVLDSDGSFFLVSKLTVDKSRWQQGNVFSCSVMHEALHNHYTQKSLSLSPGWSHPQFEK
heavy 2: not shown
B2: DGL210 (bispecific antibody)
heavy 1: QVQLVESGGGLVQAGGSLRLSCAASGRTFSKHAMGWFRQAPGKEREFVAAIDWSGGSTYYADSVKGRFTISRDNAKNTVYLQMDSLKPEDTAVYYCAADSYTDYAQLWLPELESEYDYWGQGTLVTVSSGGGGSGGGGSGGGGSGGGGSCPPCPAPEAAGAPSVFLFPPKPKDTLMISRTPEVTCVVVDVSHEDPEVKFNWYVDGVEVHNAKTKPREEQYNSTYRVVSVLTVLHQDWLNGKEYKCKVSNKALPAPIEKTISKAKGQPREPQVCTLPPSRDELTKNQVSLSCAVKGFYPSDIAVEWESNGQPENNYKTTPPVLDSDGSFFLVSKLTVDKSRWQQGNVFSCSVMHEALHNHYTQKSLSLSPGWSHPQFEK
heavy 2: QLQLVESGGGLVQAGGSLRLSCAASRSITFSHNVMGWYRQAPGKQRELVASIGSGGSTNYVDSVKGRATISRDNAKKTVYLQMNSLKPEDTAVYYCGVVVGVYRGSLGQGTLVTVSSGGGGSGGGGSGGGGSGGGGSCPPCPAPEAAGAPSVFLFPPKPKDTLMISRTPEVTCVVVDVSHEDPEVKFNWYVDGVEVHNAKTKPREEQYNSTYRVVSVLTVLHQDWLNGKEYKCKVSNKALPAPIEKTISKAKGQPREPQVYTLPPCRDELTKNQVSLWCLVKGFYPSDIAVEWESNGQPENNYKTTPPVLDSDGSFFLYSKLTVDKSRWQQGNVFSCSVMHEALHNHYTQKSLSLSPGEPEA
B3: DGL209 (bispecific antibody)
heavy 1: QVQLVESGGGLVQAGGSLRLSCAASGRTFSKHAMGWFRQAPGKEREFVAAIDWSGGSTYYADSVKGRFTISRDNAKNTVYLQMDSLKPEDTAVYYCAADSYTDYAQLWLPELESEYDYWGQGTLVTVSSPLAPCPPCPAPEAAGAPSVFLFPPKPKDTLMISRTPEVTCVVVDVSHEDPEVKFNWYVDGVEVHNAKTKPREEQYNSTYRVVSVLTVLHQDWLNGKEYKCKVSNKALPAPIEKTISKAKGQPREPQVCTLPPSRDELTKNQVSLSCAVKGFYPSDIAVEWESNGQPENNYKTTPPVLDSDGSFFLVSKLTVDKSRWQQGNVFSCSVMHEALHNHYTQKSLSLSPGWSHPQFEK
heavy 2: QLQLVESGGGLVQAGGSLRLSCAASRSITFSHNVMGWYRQAPGKQRELVASIGSGGSTNYVDSVKGRATISRDNAKKTVYLQMNSLKPEDTAVYYCGVVVGVYRGSLGQGTLVTVSSPLAPCPPCPAPEAAGAPSVFLFPPKPKDTLMISRTPEVTCVVVDVSHEDPEVKFNWYVDGVEVHNAKTKPREEQYNSTYRVVSVLTVLHQDWLNGKEYKCKVSNKALPAPIEKTISKAKGQPREPQVYTLPPCRDELTKNQVSLWCLVKGFYPSDIAVEWESNGQPENNYKTTPPVLDSDGSFFLYSKLTVDKSRWQQGNVFSCSVMHEALHNHYTQKSLSLSPGEPEA
B4: DGL091 (bispecific antibody, V domains shown)
V domain 1: QVQLVESGGGLVQAGGSLRLSCAASGRTFSKHAMGWFRQAPGKEREFVAAIDWSGGSTYYADSVKGRFTISRDNAKNTVYLQMDSLKPEDTAVYYCAADSYTDYAQLWLPELESEYDYWGQGTQVTVSS
V domain 2: QVQLVESGGGLVQAGDSLRLSCVASERTFSSYTMGWFRQAPGKEREFTAALSWWNGGISTAYADSVKGRFTISRDNAKNTVYLQMNSLKTEDTALYYCAAARDRMPRADEYDYWGQGTQVTVSS
B5: DGL092 (bispecific antibody, V domains shown)
V domain 1: QVQLVESGGGLVQAGGSLRLSCAASGRTFSKHAMGWFRQAPGKEREFVAAIDWSGGSTYYADSVKGRFTISRDNAKNTVYLQMDSLKPEDTAVYYCAADSYTDYAQLWLPELESEYDYWGQGTQVTVSS
V domain 2: EVQLVESGGGLVQAGGSLRLSCAASGRTFRNYHMGWFRQAPGQEREFVAAISSSGGKTSYPDSVNGRFTISRDNAKNTVYLQMNNLKVEDTAVYYCAADPRYWVAAGGSEPENVEVWGQGTLVTVSS
B6: DGL049 (bispecific antibody, V domains shown)
V domain 1: QVQLQESGGGLVQAGGSLRLSCIVSGSIVRIDFMGWYRQAPGKKRDMVATITTGGSTNYADSVKDRFTISRDNAKNTLSLQVNDLKPEDTAVYYCNSVVHTTSRPPVLYWGQGTQVTVSS
V domain 2: QVQLVESGGDLVLPGGSLKLSCEASGSISSRNSMAWYRRAPGKQRELVAAISSISSGGRTDYADFVKGRFTIFRDTAKNMVYLQMNNLKPEDTAVYDCDDPIRVASLAYDDWGQGTQVTVSS
B7: DGL097 (bispecific antibody, V domains shown)
V domain 1: QVQLVESGGGLVQAGGSLRLSCAASGRTFSSYDMGWFRQAPGKEREFVAALRWSGGSTSYADSVKGRFTISRDNAKNTVYLHMNSLKPEDTAVYYCAATLETDSGTYWADYWGQGTQVTVSS
V domain 2: QVQLVESGGGLVQAGGSLRLSCVASGTFFQIHVMGWYRQAPGKQRELVAFIINNGGTRYADSVKGRFTISRDYAKNTVYLQMNSLKPEDTAVYYCNTEGTYRGRYSTDNWGQGTQVTVSS
B8: DGL090 (bispecific antibody, V domains shown)
V domain 1: EVQLVESGGGLVQPGGSLRLSCAASGFFLDDYVLGWFRQAPGKPREGVSCISSRGRYLNYAETVKGRFTISRSNAKNTVYLQMNNLEPEDTAVYYCAAVRRVSEVCKLAEDDFASWGQGTQVTVSS
V domain 2: QVQLQESGGGLVQAGGSLKLSCQASGLTFKRNTMGWFRQAPGKEREFVAHFLWTGGETDYADAVKGRFTISRDNAKNTVYLQMNSLKPEDTAVYFCAANYAGYRIDGYQYWGQGTQVTVSS
B9: DGL094 (bispecific antibody, V domains shown)
V domain 1: QVQLVESGGGLVQAGGSLRLSCAASGRTFSSYTMGWFRQAPGKEREFVAAISWSAGRTYYADSVKGRFTISRDNAKNTVYLQMNSLKPEDTAVYFCAAEEAPDWAPIDCSGYGCLSLYDYWGQGTQVTVSS
V domain 2: QVQLVESGGGLVLPGESLRLSCVVSGTIDNINSMGWYRQAPGKQRELVAYITKLGSANYADSVEGRFTISRDNAKKTVHLQMNSLKPEDTAVYYCHANERGRITWAQGTQVTVSS

In the first test the target is T1, IL-18 receptor (IL-18Rα/IL-18Rβ) overexpressed on HEK-Blue IL-18 cells (Homo sapiens (Human), UniProt Q13478 19-541; O95256 20-599).
T1 sequence 1: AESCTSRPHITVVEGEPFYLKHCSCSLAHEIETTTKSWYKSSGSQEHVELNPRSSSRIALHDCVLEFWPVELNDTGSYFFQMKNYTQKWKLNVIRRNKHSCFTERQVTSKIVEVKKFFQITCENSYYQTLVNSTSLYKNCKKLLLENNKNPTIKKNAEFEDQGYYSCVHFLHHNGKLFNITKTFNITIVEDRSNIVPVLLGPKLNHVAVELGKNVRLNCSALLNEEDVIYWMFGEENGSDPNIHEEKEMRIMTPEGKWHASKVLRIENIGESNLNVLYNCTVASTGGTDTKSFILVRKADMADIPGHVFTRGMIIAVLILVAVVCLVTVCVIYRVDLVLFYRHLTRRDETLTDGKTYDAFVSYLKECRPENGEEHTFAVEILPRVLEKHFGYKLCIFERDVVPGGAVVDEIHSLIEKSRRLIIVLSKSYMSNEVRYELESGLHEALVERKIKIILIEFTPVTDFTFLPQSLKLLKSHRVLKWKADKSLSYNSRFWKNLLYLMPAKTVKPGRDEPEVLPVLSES
T1 sequence 2: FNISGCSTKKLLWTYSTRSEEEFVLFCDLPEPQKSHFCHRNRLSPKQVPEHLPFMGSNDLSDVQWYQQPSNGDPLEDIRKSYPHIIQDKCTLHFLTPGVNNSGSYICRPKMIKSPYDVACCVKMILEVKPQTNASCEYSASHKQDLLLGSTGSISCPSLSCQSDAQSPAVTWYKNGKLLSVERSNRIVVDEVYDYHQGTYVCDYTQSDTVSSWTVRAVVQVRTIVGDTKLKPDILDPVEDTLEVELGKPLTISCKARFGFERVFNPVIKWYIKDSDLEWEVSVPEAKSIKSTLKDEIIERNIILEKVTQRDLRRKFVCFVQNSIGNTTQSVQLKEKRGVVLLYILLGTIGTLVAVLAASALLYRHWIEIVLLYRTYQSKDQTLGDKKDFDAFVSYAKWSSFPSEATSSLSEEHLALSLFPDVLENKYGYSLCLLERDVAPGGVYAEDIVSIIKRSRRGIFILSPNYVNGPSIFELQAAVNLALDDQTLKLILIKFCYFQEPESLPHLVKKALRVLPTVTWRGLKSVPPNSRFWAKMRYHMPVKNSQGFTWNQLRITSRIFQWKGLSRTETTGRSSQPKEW
Kind of test: cell-based or functional assay.
As to B1, the “HEK-Blue IL-18: Abs 405 at 100 nM” value is 1.4 Abs and the “HEK-Blue IL-18: Fold over Background” value stood at 5.9 fold.

For B2, the “HEK-Blue IL-18: Abs 405 at 100 nM” value was determined as 1.1 Abs and the “HEK-Blue IL-18: Fold over Background” value was found to be 4.6 fold.

For the molecule B3, the “HEK-Blue IL-18: Abs 405 at 100 nM” value was 2 Abs and the “HEK-Blue IL-18: Fold over Background” value turned out to be 8.7 fold.

The next test has as its target T1, IL-18 receptor (IL-18Rα/IL-18Rβ) …. Kind of test: cell-based or functional assay. This is another data set of the same source.
With B4, the “HEK-Blue IL-18: Abs405 (Emax)” value was 0.35 Abs and the “HEK-Blue IL-18: EC50” value is 0.032 nM.

Take B5: the “HEK-Blue IL-18: Abs405 (Emax)” value worked out at 0.61 Abs and the “HEK-Blue IL-18: EC50” value amounted to 0.019 nM.

B6: the “HEK-Blue IL-18: Abs405 (Emax)” value was found to be 0.34 Abs and the “HEK-Blue IL-18: EC50” value was determined as 0.01 nM.

As for B7, the “HEK-Blue IL-18: Abs405 (Emax)” value is 0.45 Abs and the “HEK-Blue IL-18: EC50” value was 0.014 nM.

As for B8, the “HEK-Blue IL-18: Abs405 (Emax)” value was found to be 0.26 Abs and the “HEK-Blue IL-18: EC50” value was 0.033 nM.

For the molecule B9, the “HEK-Blue IL-18: Abs405 (Emax)” value turned out to be 0.7 Abs and the “HEK-Blue IL-18: EC50” value is 0.019 nM.

The record behind these values is patent US20240209100A1 (DIAGONAL THERAPEUTICS, published 2024).
